{"source": "patent US20160235810A1", "about": "“METHODS OF TREATING DIABETES AND RELATED DISORDERS” (NOVARTIS AG, priority 2013, published 2016)", "key": {"[1]": {"system": "high fat diet-induced obese (DIO) mice", "assay": "OGTT after hydrodynamic injection (HDI) of vector encoding PIP/Sval1 in high fat DIO mice", "type": "in vivo", "from_the_text": "To ascertain if this newly implicated factor can replicate some of the benefits shown by the RYGB surgery, a hydrodynamic gene delivery method was developed in-house. We tested the effect of delivery of DNA encoding the secreted factor PIP in vivo. The Fc-fusion proteins of PIP was encoded in pLEV113 vector, which was delivered via hydrodynamic injection (HDI) in high fat diet-induced obese (DIO) mice.\nMice, that were maintained for 12 weeks on high fat diet (60% Kcal fat, Research Diets), were sorted into groups based on their body weights and fed blood glucose levels. On the day of HDI of the PIP vector or control pLEV113 vector (30 ug/mouse), mice were placed in a restrainer and tails were cleaned with 70% alcohol. A 27-G butterfly needle connected with a 3 ml syringe was inserted into the tail vain, with bevel facing up, and pulled backwards on the syringe plunger to ensure blood was drawn into the syringe. The desired volumes (7% of body weight, up to a total of 3.2 mL) of DNA construct solution was injected over a short period (5-10 seconds) by hand. The needle was then withdrawn and bleeding stopped by adding pressure to the injection site with gauze.\nAfter the HDI procedure, mice were monitored twice daily in the first 48 hours and then once per day for a week. Basal fed blood glucose levels in mice were measured at day 14, and blood samples were collected to obtain plasma for measuring Fc level or for endogenous protein levels in the future.\nAt day 16 post-HDI an OGTT was conducted to evaluate glucose handling and beta cell function. Basal and glucose-stimulated glucose and insulin levels were measured over 2-3 hours during the OGTT.\nAt day 30, basal blood glucose levels, changes in weight or food intake, and another functional tests, such as an OGTT, were performed for a 2nd time.\nAt day 40 post-HDI, the study was terminated by euthanization of mice and plasma collected for key metabolic biomarkers."}, "[2]": {"system": "diabetic non-human primates", "conditions": "Kharitonenkov et al. 2007; cited from earlier work"}}, "data": [{"molecule": "mouse PIP: mouse prolactin-inducible protein, delivered as DNA in pLEV113 vector via hydrodynamic injection (full length native and Fc-tagged tested) (protein, UniProt P02816 27-146, looked up) Prolactin-inducible protein …: QDDENVRKPLLIEIDVPSTAQENQEITVQVTVETQYRECMVIKAYLVSNEPMEGAFNYVQTRCLCNDHPIRFFWDIIITRTVTFATVIDIVREKNICPNDMAVVPITANRYYTYNTVRMN", "values": [{"measurement": "reduction in glucose area under the curve during an OGTT", "setting": "[1]; hydrodynamic gene delivery, high fat DIO mice, glucose AUC 0-120 min, compared to vector control group", "result": 30, "unit": "%"}, {"measurement": "increase in insulin area under the curve (GSIS) during an OGTT", "setting": "[1]; hydrodynamic gene delivery, high fat DIO mice, insulin AUC 0-30 min, compared to vector control group", "result": 72, "unit": "%"}]}, {"molecule": "FGF-21: Fibroblast Growth factor 21, an endocrine hormone; proposed fusion partner (protein) HPIPDSSPLLQFGGQVRQRYLYTDDAQQTEAHLEIREDGTVGGAADQSPESLLQLKALKPGVIQILGVKTSRFLCQRPDGALYGSLHFDPEACSFRELLLEDGYNVYQSEAHGLPLHLPGNKSPHRDPAPRGPARFLPLPGLPPALPEPPGILAPQPPDVGSSDPLSMVGPSQGRSPSYAS", "values": [{"measurement": "increase in HDL cholesterol", "setting": "[2]", "result": "~80", "unit": "%"}]}, {"molecule": "human PIP: human prolactin-inducible protein (GenBank NP_002643), here delivered via HDI of vector (protein, UniProt P12273 29-146, looked up) Prolactin-inducible protein: QDNTRKIIIKNFDIPKSVRPNDEVTAVLAVQTELKECMVVKTYLISSIPLQGAFNYKYTACLCDDNPKTFYWDFYTNRTVQIAAVVDVIRELGICPDDAAVIPIKNNRFYTIEILKVE", "values": [{"measurement": "beta cell function compared to mouse Sval1", "setting": "[1]; HDI administration in DIO mice", "result": "improved beta cell function similar to that of mouse Sval1"}]}]}
